Experimental data published in article doi:10.1101/2020.10.29.360719, “Phase separation of the LINE-1 ORF1 protein is mediated by the N-terminus and coiled-coil domain” (bioRxiv, 2020).

Columns and labels:
[1] = molecular target: the molecule itself; assay: SEC; gel filtration, GE HiPrep 16/60 Sephacryl S-300 HR, 20 mM Tris pH 8.0, 1 M NaCl, 1 mM DTT; self-association (trimer)
[2] = molecular target: T1, ORF1_(53-152) (coiled-coil domain of ORF1) (human, UniProt Q9UN81 53-152); assay: NMR titration; 15N-1H HSQC and 15N relaxation of the 15N-enriched N-terminal construct with non-labeled coiled-coil construct added (equimolar, 700 uM each in Fig. 3C); 25 °C; 20 mM HEPES pH 7.25 or 20 mM MES pH 6.0, 200 mM NaCl, 1 mM DTT; details: both partners purified
T1 construct: Non-labeled in the NMR experiments; also called full-length coiled-coil domain; trimeric coiled-coil domain; source: E. coli BL21STAR(DE3), purified (Ni-NTA, Sephacryl S-300 gel filtration)
T1 sequence (looked up): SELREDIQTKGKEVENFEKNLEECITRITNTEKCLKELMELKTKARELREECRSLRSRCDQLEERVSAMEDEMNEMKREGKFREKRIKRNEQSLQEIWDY

B1: ORF1_(1-131) (domain or fragment, human, UniProt Q9UN81 1-131, looked up)
chain: MGKKQNRKTGNSKTQSASPPPKERSSSPATEQSWMENDFDELREEGFRRSNYSELREDIQTKGKEVENFEKNLEECITRITNTEKCLKELMELKTKARELREECRSLRSRCDQLEERVSAMEDEMNEMKRE
notes: LINE-1 ORF1 protein, human, residues 1-131 (N-terminus and coiled-coil domain lacking the C-terminal 22 residues); source: E. coli BL21STAR(DE3), purified (Ni-NTA, gel filtration)
- stoichiometry N [1]: 3

B2: full-length ORF1_(1-338) protein (LINE-1 ORF1 protein) (natural protein, human, UniProt Q9UN81 1-338, looked up)
chain: MGKKQNRKTGNSKTQSASPPPKERSSSPATEQSWMENDFDELREEGFRRSNYSELREDIQTKGKEVENFEKNLEECITRITNTEKCLKELMELKTKARELREECRSLRSRCDQLEERVSAMEDEMNEMKREGKFREKRIKRNEQSLQEIWDYVKRPNLRLIGVPESDVENGTKLENTLQDIIQENFPNLARQANVQIQEIQRTPQRYSSRRATPRHIIVRFTKVEMKEKMLRAAREKGRVTLKGKPIRLTADLSAETLQARREWGPIFNILKEKNFQPRISYPAKLSFISEGEIKYFIDKQMLRDFVTTRPALKELLKEALNMERNNRYQPLQNHAKM
notes: LINE-1 (L1) ORF1 protein, human, residues 1-338, 40 kDa; No tag removal is described; The histidine tag is only named in the legends for ORF1_(1-53); also called L1 ORF1 protein; wild-type ORF1; source: E. coli BL21STAR(DE3), purified (Ni-NTA, Sephacryl S-300 gel filtration)
- stoichiometry N [1]: 3

B3: ORF1_(1-141) (domain or fragment, human, UniProt Q9UN81 1-141, looked up)
chain: MGKKQNRKTGNSKTQSASPPPKERSSSPATEQSWMENDFDELREEGFRRSNYSELREDIQTKGKEVENFEKNLEECITRITNTEKCLKELMELKTKARELREECRSLRSRCDQLEERVSAMEDEMNEMKREGKFREKRIKR
notes: LINE-1 ORF1 protein, human, residues 1-141 (N-terminus and coiled-coil domain lacking the C-terminal 12 residues); source: E. coli BL21STAR(DE3), purified (Ni-NTA, gel filtration)
- stoichiometry N [1]: 3

B4: ORF1_(1-46) (domain or fragment, human, UniProt Q9UN81 1-46, looked up)
chain: MGKKQNRKTGNSKTQSASPPPKERSSSPATEQSWMENDFDELREEG
notes: LINE-1 ORF1 protein, human, residues 1-46; Observed by 15N-1H HSQC, so isotope enriched; also called truncated ORF1_(1-46) construct; source: E. coli BL21STAR(DE3), purified (Ni-NTA, gel filtration)
- binding result [2]: binds

B5: ORF1_(1-53) (disordered N-terminal region of ORF1) (domain or fragment, human, UniProt Q9UN81 1-53, looked up)
chain: MGKKQNRKTGNSKTQSASPPPKERSSSPATEQSWMENDFDELREEGFRRSNYS
notes: LINE-1 ORF1 protein, human, residues 1-53; 15N (and for assignment 13C) isotope enriched for NMR; also called N-terminus; N-terminal region (1-53); source: E. coli BL21STAR(DE3), purified (Ni-NTA, heat 70°C, gel filtration); not shown: histidine tag, C-terminal, kept
- binding result [2]: binds
